# From publication PMC11059001
# Substitutions are numbered along the chain they refer to. In names and notes the source's numbering stands.
# B1: truncated Trichinella spiralis calreticulin TsCRT^Δ (22-209, GSG linker, 305-364) D139A; H149A (protein)
# chain: EPTIYLKETFDDGDAWKERWVQSKHKDDYGEWQLSHGKLFADENDMGLKTMQDARFYSLSRKFDKVVDNKDKPLVIVYTVKHEQDIDCGGGYIKLMLENTDLEDFNSDTPYRIMFGPAICGPEKRAVASILWHDGKNYEKRKNAIAMADIFTHAYKLIIFPNNSYEIWVNNDKEAYGRLEDDWTMTEPGSGPVPELYRYKGLGAIGFELWQVKSGTIFDNILITDDPEYAKEFIDKQLEALRPIEKVESDK
# B2: truncated Trichinella spiralis calreticulin TsCRT^Δ (22-209, GSG linker, 305-364) M135A; I151A (protein)
# chain: B1 chain with M114A, A118D, A128H, I130A
# B3: truncated Trichinella spiralis calreticulin TsCRT^Δ (22-209, GSG linker, 305-364) C141A; K145A (protein)
# chain: B1 chain with A118D, C120A, K124A, A128H
# B4: truncated Trichinella spiralis calreticulin TsCRT^Δ (22-209, GSG linker, 305-364) W323A; V325A (protein)
# chain: MGSSHHHHHHSSGENLYFQGGSEPTIYLKETFDDGDAWKERWVQSKHKDDYGEWQLSHGKLFADENDMGLKTMQDARFYSLSRKFDKVVDNKDKPLVIVYTVKHEQDIDCGGGYIKLMLENTDLEDFNSDTPYRIMFGPDICGPEKRAVHSILWHDGKNYEKRKNAIAMADIFTHAYKLIIFPNNSYEIWVNNDKEAYGRLEDDWTMTEPGSGPVPELYRYKGLGAIGFELAQAKSGTIFDNILITDDPEYAKEFIDKQLEALRPIEKVESDK
# Target: complement C1q, P02745;P02746;P02747
# Test: MST
# Conditions: chain shown with the change
row,Binder,Kd [µM]
1,B1,19
2,B2,5.99
3,B3,34.8
4,B4,22.9
